One block for each binder: values may come before it.
How the values were obtained:
adenosine A2A receptor [1] = target: T1, adenosine A2A receptor (Homo sapiens (Human), UniProt P29274 1-412); assay: flow cytometry cell-binding titration 0.05-100 nM IgG; panel title 'Synthetic Library to A2a protein' (panning group)
T1 construct: also called ADORA2; HEK293-A2a cells

adenosine A2A receptor [2] = target: T1, adenosine A2A receptor; assay: flow cytometry cell-binding titration 0.05-100 nM IgG
adenosine A2A receptor [3] = target: T1, adenosine A2A receptor; assay: flow cytometry cell-binding titration 0.05-100 nM IgG; panel title 'Immune Library to A2a protein + ZM241385' (panning group)
adenosine A2A receptor [4] = target: T1, adenosine A2A receptor; assay: cell-based or functional assay
adenosine A2A receptor [5] = target: T1, adenosine A2A receptor; assay: flow cytometry titration 0.05-100 nM IgG; grey series read as HEK293-A2a cells
Method: Flow cytometry data showing binding to HEK293-A2a cells using immunoglobulins from variant libraries were generated using 100 nM IgG and compared to detected binding in parent cells. […] Selected variants were assessed for binding at concentrations titrated from 100 nM. […] Binding curves are plotted with IgG concentration vs. MFI (mean fluorescence intensity). […] Selected variants were assessed for binding at concentrations titrated from 100 nM. […] Binding curves are plotted with IgG concentration vs. MFI (mean fluorescence intensity).

T1 sequence (P29274 whole entry): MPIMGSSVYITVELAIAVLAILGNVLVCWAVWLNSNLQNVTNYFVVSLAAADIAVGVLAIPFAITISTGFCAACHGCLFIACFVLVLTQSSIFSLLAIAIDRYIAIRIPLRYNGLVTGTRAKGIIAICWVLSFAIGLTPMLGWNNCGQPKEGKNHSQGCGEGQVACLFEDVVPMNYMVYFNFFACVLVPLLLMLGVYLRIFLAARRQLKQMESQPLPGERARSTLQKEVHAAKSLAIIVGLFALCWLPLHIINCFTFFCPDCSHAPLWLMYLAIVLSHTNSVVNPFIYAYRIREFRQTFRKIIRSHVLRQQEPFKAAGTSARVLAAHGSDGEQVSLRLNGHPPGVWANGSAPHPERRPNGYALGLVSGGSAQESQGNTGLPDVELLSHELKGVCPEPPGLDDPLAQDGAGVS

- binding result (adenosine A2A receptor [1]): binds
B1: A2A-18 (antibody, V domains shown)
VH: EVQLVESGGGLVKPGGSLRLSCAASGFSFSGYAMSWVRQAPGKGLEWVSVISGSGGSTNYADSVKGRFTISRDNSKNTLYLQMNSLRAEDTAVYYCAAARGYPRWRLGRRYDYWGQGTLVTVSS
VL: DIQMTQSPSSLSASVGDRVTITCRASQSVTTYLNWYQQKPGKAPKLLIYSASSLQSGVPSRFSGSGSGTDFTLTISSLQPEDFATYYCQQTYATPWTFGGGTKVEIK
notes: tested as IgG

- binding result (adenosine A2A receptor [3]): binds
B3: A2A - 81 (antibody, V domains shown)
VH: QVQLQESGPGLVKPSGTLSLTCAVSGGSISSSNWWSWVRQPPGKGLEWIGEIYHSGSTNYNPSLKSRVTISVDKSKNQFSLKLGSVTAADTAVYYCAREVVSGLYGTIFDYWGQGTLVTVSS
VL: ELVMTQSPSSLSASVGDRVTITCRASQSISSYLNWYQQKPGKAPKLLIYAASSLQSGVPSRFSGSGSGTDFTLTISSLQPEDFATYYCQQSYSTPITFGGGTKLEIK
notes: tested as IgG

More lines, now with the values behind:

B2: A2A - 77 (antibody, V domains shown)
VH: QVQLQESGPGLVKPSGTLSLTCAVSGGSISSSNWWSWVRQPPGKGLEWIGEIYHSGNTNYNPSLKSRVTMSVDKSKNQFSLNLHSVTAADTAVYYCAREVVSGMIGTIFDYWGQGTLVTVSS
VL: ELVMTQSPSSLSASVGDRVTITCRASQRISSYLNWYQQKPGKAPKLLIYAASSLQSRVPSRFSGSGSGTDFTLTISSLQPEDFATYYCQQSYSTPLTFGGGTKLETK
notes: tested as IgG
- EC50 (read off the curve) (adenosine A2A receptor [2]): ~6 nM

B4: A2A - 53 (antibody, V domains shown)
VH: EVQLVESGGGLVKPGGSLRLSCAASGFNIIDDYMHWVRQAPGKGLEWVGMITDTGEPTDADSVKGRFTISRDNSKNTLYLQMNSLRAEDTAVYYCVYDYIYAMDYWGQGTLVTVSS
VL: DIQMTQSPSSLSASVGDRVTITCKASQNMGSNVAWYQQKPGKAPKLLIYSASHRSSGVPSRFSGSGSGTDFTLTISSLQPEDFATYYCQQWNYPRITFGQGTKLEIK
- IC50 (read off the curve), A2A antagonistic cAMP assay, RFU ratio 665/615 nm, 0.5 uM NECA (adenosine A2A receptor [4]): ~3 nM

B5: A2A-9 (antibody, V domains shown)
VH: EVQLQQSGPGLVKPSQSLSLTCSVTGYSITSGYYWNWIRQFPGKKLEWMGYIRYDGSNNYNPSLKNRISITRDTSKNQFFLKLNSVTTDDTATYYCARVHHYYGSSYFDYWGQGTTLTVSS
VL: DIVMTQSQKFMSTSVGDRVSATCKASQNVGSSVAWFQQKPGQSPKALIYSTSYRYSGVPDRFTGSGSGTDFTLTISNVQSEDLAEYFCQQYNSYPLTFGAGTKLEIK
notes: Tested as IgG; also called A2AR variant A2A-9
- EC50 (read off the curve) (adenosine A2A receptor [5]): ~4 nM

— patent US20210179724A1 (TWIST BIOSCIENCE, published 2021)
